From article PMC11130294 (Nature Communications, 2024)

Assays:
FabDA1 [1] = experiment: MST; pH 7.5: Fab labelled with a 647-nm fluorophore at 40 nM, NorA in PMAL-C8 amphipol at varied concentrations; 20 mM Tris pH 7.5, 100 mM NaCl, 0.025% Tween-20; 15 min incubation; fit with Hill slope 1.0; three replicates
FabDA1 [2] = experiment: MST; pH 5.0: Fab labelled with a 647-nm fluorophore at 40 nM, NorA in PMAL-C8 amphipol at varied concentrations; 50 mM acetate pH 5.0, 100 mM NaCl, 0.025% Tween-20; 15 min incubation; fit with Hill slope 1.0; three replicates
[3] = target: T1, Staphylococcus aureus efflux pump NorA, wild type (S. aureus, UniProt P0A0J7); experiment: MST; NorA in amphipol at varied concentrations mixed with fluorophore-labelled Fab at 40 nM; 20 mM Tris pH 7.5, 100 mM NaCl, 0.025% Tween-20; 15 min incubation; three replicates; settings: both partners purified
T1 construct: NorA, major facilitator superfamily efflux pump of S. aureus; the construct is not described here; The C-terminal Myc tag is told only for the MRSA expression plasmid, not for this E. coli protein; also called wild-type NorA

| Binder | Kd (FabDA1 [1]) [nM] | Kd (FabDA1 [2]) [nM] | binding result [3] |
| --- | --- | --- | --- |
| NorA (wild-type, Staphylococcus aureus efflux pump) (natural protein) MNKQIFVLYFNIFLIFLGIGLVIPVLPVYLKDLGLTGSDLGLLVAAFALSQMIISPFGGTLADKLGKKLIICIGLILFSVSEFMFAVGHNFSVLMLSRVIGGMSAGMVMPGVTGLIADISPSHQKAKNFGYMSAIINSGFILGPGIGGFMAEVSHRMPFYFAGALGILAFIMSIVLIHDPKKSTTSGFQKLEPQLLTKINWKVFITPVILTLVLSFGLSAFETLYSLYTADKVNYSPKDISIAITGGGIFGALFQIYFFDKFMKYFSELTFIAWSLLYSVVVLILLVFANGYWSIMLISFVVFIGFDMIRPAITNYFSNIAGERQGFAGGLNSTFTSMGNFIGPLIAGALFDVHIEAPIYMAIGVSLAGVVIVLIEKQHRAKLKEQNM | > 24500 | 2900 | – |
| Fab36 (Fab, V domains shown, also called outward-open-specific Fab36) VH: EVQLVESGGGLVQPGGSLRLSCAASGFTFSSSSIHWVRQAPGKGLEWVASISSSSGSTSYADSVKGRFTISADTSKNTAYLQMNSLRAEDTAVYYCARYSRYYYYAWRVGGYWGGLDYWGQGTLVTVFN VL: DIQMTQSPSSLSASVGDRVTITCRASQSVSSAVAWYQQKPGKAPKLLIYSASSLYSGVPSRFSGSRSGTDFTLTISSLQPEDFATYYCQQSSSSLITFGQGTKVEIK | – | – | binds |
